The target in test [1] is T1, CCR7 (Homo sapiens, UniProt P32248).
T1 construct: The cells were then disrupted with a Polytron homogenizer and centrifuged at 30,000× g for 10 min; endogenous in cells; host or cells: HUT-78 cells (membrane pellet)
T1 sequence (P32248 25-378): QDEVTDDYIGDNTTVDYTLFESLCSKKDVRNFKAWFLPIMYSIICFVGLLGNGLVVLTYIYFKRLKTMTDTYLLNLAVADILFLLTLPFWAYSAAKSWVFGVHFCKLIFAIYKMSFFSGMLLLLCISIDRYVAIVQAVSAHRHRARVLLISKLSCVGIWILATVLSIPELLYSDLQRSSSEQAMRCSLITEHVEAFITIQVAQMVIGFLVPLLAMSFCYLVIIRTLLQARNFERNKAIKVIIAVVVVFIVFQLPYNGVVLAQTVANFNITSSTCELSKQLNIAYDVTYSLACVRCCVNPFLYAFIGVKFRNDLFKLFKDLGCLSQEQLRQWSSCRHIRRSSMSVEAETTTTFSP
The test can be described thus: Binding assay: 125I-MIP-3β binding to HUT-78 cell membranes (scintillation proximity). To be noted: binding assay of Example 1, HUT-78 membranes, read-out: IC50, inhibition of binding of MIP-3β to CCR7. The protocol:
HUT-78 cells were cultured in RPMI media with 10% FBS, pen-strep (100 u/ml), L-glutamine (2 mM), HEPES (10 mM) and non-essential amino acids (0.1 mM). The cells were collected by centrifugation at 170× g for 5 min and resuspended to 50×10^ 6 cells/ml in Dulbeccoco's Ca^2+ and Mg^2+ free media containing 8 mg/l aprotinin at 4° C. The cells were then disrupted with a Polytron homogenizer and centrifuged at 30,000× g for 10 min. The pellet was washed 6 times and stored at −80° C.
The binding assay was run in a buffer containing HEPES (50 mM), CaCl2 (1 mM), MgCl2 (5 mM), NaCl (150 mM) and BSA (0.5 mg/ml), pH 7.2. The pellet was resuspended to 8×10^6 cell equivalents/ml and 50 μl was added to microtiter plate wells containing 130 μl of buffer with various concentrations of compounds, and 0.5 mg PEI-treated wheatgerm agglutinin-coated scintillation proximity beads (Amersham). The binding was initiated by the addition of 20 μl of 600 pM ^125I-MIP-3β (New England Nuclear). The microtiter plate was mixed and then the beads were allowed to settle overnight before counting in a Microbeta plus liquid scintillation counter (Wallac).
On the technique in general: Scintillation proximity formats need no separation of bound from free tracer.

Test [2] deals with PHA-activated human T cells. The experiment in a line: In vitro chemotaxis of T cells (48-well Boyden chamber). The format is cell-based. The following applies: for effect on T cell chemotaxis compared with other chemokines: Hut 78 and primary T cells; for chemoattractant activity for PHA-activated human T cells: FIG. 3. The protocol: Lymphocyte and PHA blast chemotaxis to appropriate chemokine was measured using a 48-well Boyden chamber (Neuro Probe Inc., Cabin John, Md.). Agonists were diluted in RPMI media (BioWhittaker, Walkersville, Md.) containing 0.1% bovine serum albumin (Invitrogen, Carlsbad, Calif.) and added to the bottom wells of the chemotaxis chamber. Peripheral mononuclear blood cells were resuspended in RPMI/BSA media at a concentration of 2.5×10^6 cells per ml. Fifty μl of this cell suspension was then added to the upper chamber. A 5 μm PVP-free polycarbonate filter, coated on the bottom with 10 microgram/ml of human type IV collagen (Neuro Probe Inc.), was used to separate the wells of the chamber Chambers were incubated for 60 minutes in a 5% CO2-humidified atmosphere at 37° C. After the incubation period, the filters were removed, the top side was scraped to remove non-migrating cells, and the filters were stained with Diff-Quik stain (Dade Behring AG, Dudingen, Switzerland). The number of PMBC cells migrating was counted by light microscopy. The mean of three high powered fields was then determined. The number of migrating PMBC cells was calculated by subtracting […].

The subject of test [3] is Hut-78 cells. The test can be described thus: In vitro chemotaxis of Hut-78 cells. The format is cell-based. To be noted: FIG. 2.

For the molecule `O=S1(=O)COc2cc(NCCCc3cnco3)ccc2N1` [Example 3], the IC50 in test [1] is 1500 nM.

Consider “MCP-3: chemokine tested for comparison in T cell chemotaxis”, for which the “effect on T cell chemotaxis compared with other chemokines” value (from here on “effect … compared with other chemokines”) in test [2] is listed as “minimal effects”.

For the molecule “IP-10: chemokine tested for comparison in T cell chemotaxis”, the “effect … compared with other chemokines” value in test [2] is on record as “minimal effects”.

Take “MCP-1: chemokine tested for comparison in T cell chemotaxis”: the “effect … compared with other chemokines” value in test [2] is reported as “minimal effects”.

As to `Cc1cc(C)c2c(=O)n(CC(O)CN(C)CC3OCCCO3)sc2c1` (stereo not drawn) [Example 4], the IC50 in test [1] is 2200 nM.

B1: MIP-1α: chemokine tested for comparison in T cell chemotaxis (protein, UniProt P10147 24-92, looked up)
C-C motif chemokine 3: SLAADTPTACCFSYTSRQIPQNFIADYFETSSQCSKPGVIFLTKRSRQVCADPSEEWVQKYVSDLELSA
As for B1, the “effect … compared with other chemokines” value in test [2] is recorded as “minimal effects”.

B2: MIP-3β: chemokine, macrophage inflammatory protein-3b, ligand of the CCR7 receptor (protein, UniProt Q99731 22-98, looked up)
C-C motif chemokine 19: GTNDAEDCCLSVTQKPIPGYIVRNFHYLLIKDGCRVPAVVFTTLRGRQLCAPPDQPWVERIIQRLQRTSAKMKRRSS
As to B2, the “chemoattractant activity for Hut-78 cells” value in test [3] was “potent chemoattractants”. Besides, in test [2], the “chemoattractant activity for PHA-activated human T cells” value is on record as “potent chemoattractants” and the “effect … compared with other chemokines” value is listed as “most potent T cell chemotactic agents”.

B3: SLC: secondary lymphoid organ chemokine, ligand of the CCR7 receptor (protein, UniProt O00585 24-134, looked up)
C-C motif chemokine 21: SDGGAQDCCLKYSQRKIPAKVVRSYRKQEPSLGCSIPAILFLPRKRSQAELCADPKELWVQQLMQHLDKTPSPQKPAQGCRKDRGASKTGKKGKGSKGCKRTERSQTPKGP
Take B3: in test [3], the “chemoattractant activity for Hut-78 cells” value is “potent chemoattractants”. For the same molecule, in test [2], the “chemoattractant activity for PHA-activated human T cells” value is given as “potent chemoattractants” and the “effect … compared with other chemokines” value is reported as “most potent T cell chemotactic agents”.

B4: Tarc: chemokine tested for comparison in T cell chemotaxis (protein, UniProt Q92583 24-94, looked up)
C-C motif chemokine 17: ARGTNVGRECCLEYFKGAIPLRKLKTWYQTSEDCSRDAIVFVTVQGRAICSDPNNKRVKNAVKYLQSLERS
B4: in test [2], the “effect … compared with other chemokines” value is “minimal effects”.

B5: RANTES: chemokine tested for comparison in T cell chemotaxis (protein, UniProt P13501 24-91, looked up)
C-C motif chemokine 5: SPYSSDTTPCCFAYIARPLPRAHIKEYFYTSGKCSNPAVVFVTRKNRQVCANPEKKWVREYINSLEMS
As for B5, the “effect … compared with other chemokines” value in test [2] is listed as “minimal effects”.

B6: MIP-1β: chemokine tested for comparison in T cell chemotaxis (protein, UniProt P13236 24-92, looked up)
C-C motif chemokine 4: APMGSDPPTACCFSYTARKLPRNFVVDYYETSSLCSQPAVVFQTKRSKQVCADPSESWVQEYVYDLELN
For B6, in test [2], the “effect … compared with other chemokines” value is given as “minimal effects”.

In general, IC50 refers to the concentration needed to halve the response being measured.

The values are drawn from patent publication US20020168358A1, “Treatment of T-cell mediated diseases” (priority 2001, published 2002).
